In assay [1] the target is T1, irrelevant (Ig-V)-B7-H4 (Ig-C; D158-G236 including TM/CD D237-K282) chimeric membrane protein (Homo sapiens (Human), UniProt Q7Z7D3 158-282).
T1 construct: Transiently expressed on 293 cells; also called construct-88B; B7-H4 Ig-C domain; not shown: irrelevant Ig-V domain
T1 sequence: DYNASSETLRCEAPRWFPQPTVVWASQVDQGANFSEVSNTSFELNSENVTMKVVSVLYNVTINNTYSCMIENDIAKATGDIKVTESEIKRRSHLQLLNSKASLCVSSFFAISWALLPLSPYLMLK
Kind of assay: FACS of Dylight-488 or -650 labelled antibody on 293 cells transiently transfected with construct-88B. The source says: To determine whether the B7-H4 antibodies bind to either the Ig-V or Ig-C domain of B7-H4, chimeric Ig domain molecules were engineered that contain either a B7-H4 (IgV; G28-F150 including spacer S151-V157)—irrelevant (Ig-C) (construct-88) or an irrelevant (Ig-V)-B7-H4 (Ig-C; D158-G236 including TM/CD D237-K282) (construct-88B) membrane protein using standard molecular cloning methods. N-terminal or cytoplasmic tags were attached to confirm that 293 cells transfected with these constructs express protein on the cell membrane (data not shown). Briefly, 293 cells were transiently transfected with constructs 88 & 88B using polyfect. After 48 hours, the cells were stained with 10 μg/ml of Dylight-488 or -650 labeled ch9B9, ch1D11, ch22C10 or ch32D6 for 30-40 minutes at 4° C., washed and analyzed on a BD FACS calibur.

For another assay, the target named is T2, cynomolgus monkey B7-H4 (cynomolgus monkey, UniProt Q7Z7D3 29-282 (human entry)).
T2 construct: Expressed on stably transfected 293 cells; also called cyno B7-H4
T2 chain: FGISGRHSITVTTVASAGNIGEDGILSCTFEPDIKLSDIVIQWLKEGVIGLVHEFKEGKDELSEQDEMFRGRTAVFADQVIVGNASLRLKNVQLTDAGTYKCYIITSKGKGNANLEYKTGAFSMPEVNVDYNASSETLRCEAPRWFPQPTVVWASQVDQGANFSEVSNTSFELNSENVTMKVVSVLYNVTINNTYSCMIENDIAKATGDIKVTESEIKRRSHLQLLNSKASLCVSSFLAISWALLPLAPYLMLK
Description: FACS titration on 293-cyno B7-H4 cells, geometric mean fluorescence. The method, then: The small-scale preps were initially screened by FACS and Scatchard Analyses to determine species-specificity and affinity (Kd) to recombinant and endogenous B7-H4. Initial EC₅₀ and species specificity were determined by incubating different concentrations (0-10 μg/ml) of the humanized variants with 293 cells overexpressing recombinant human-, cynomolgus-, or mouse-B7-H4, and the tumor cell line, MX-1, expressing endogenous human B7-H4, at 4° C. for 40 minutes followed by a wash and staining with a secondary goat-anti-human IgG antibody conjugated to Dylight-650 for 20 minutes at 4° C. The fluorescent signal was acquired with a BD FACS Calibur and EC₅₀ values were determined with the Graph Pad program Prism 4.

B1: ch22C10 (antibody, human IgG1, V domains shown)
VH: QVQLQQPGAELVKPGTSVKLSCKASGYTFTNFWIHWVIQRPGQGLEWIGEIDPSDSYTNYNQKFKGKATLTVDKSSNTAYMQLSSLTSEDSAVYYCSREITTVDYWGQGTTLTVSS
VL: QIVLTQSPTIMSASPGEKVTLTCSATSSISYMHWYQQKPGTSPKGWIYDTSKLAHGVPARFSGSGSGTSYSLTISSMEAEDAATYYCHQRRSYPFTFGSGTKLEIK
notes: also called chimeric 22C10; ch2210
Regarding B1, in assay [1], the binding result is “no binding (tested: 10 ug/ml)”.

B2: hu1D11.v1.8 (antibody, V domains shown)
VH: EVQLVQSGAEVKKPGASVKVSCKASGYTFTSYWIGWVRQAPGQGLEWIGDIYPGGGYTNYNEKFKGRATITRDTSTSTAYLELSSLRSEDTAVYYCARLDGSSYRGAMDSWGQGTLVTVSS
VL: DIQMTQSPSSLSASVGDRVTITCKASQGFNKYVAWYQQKPGKAPKLLIYYTSTLQPGVPSRFSGSGSGRDYTLTISSLQPEDFATYYCLQYGNLLYAFGQGTKVEIKR
notes: also called h1D11.v1.8
With B2, the binding result in the assay with cynomolgus monkey B7-H4 was “binds”.

B3: ch9B9 (antibody, human IgG1, V domains shown)
VH: QVQLQQSGAELMKPGASVKMSCKATGYTFSSYWIEWVKQRPGHGLEWIGEILPGTSITTYNAKFKVKATFTADTSSNTAYMQLSSLTSEDSAVYFCARYYFGSSSFYFDYWGQGTSLTVSS
VL: QAVVTQESALTTSPGDTVTLTCRSSTGAVTTSNYANWVQEKPDHLFTGLIGGTNNRVPGVPARFSGSLIGDKAALTITGAQTEDEAMYFCALWYNNHWVFGGGTKLE
notes: also called chimeric 9B9
Take B3: the binding result in assay [1] was “no binding (tested: 10 ug/ml)”.

B4: ch1D11 with light chain C43G (antibody, V domains shown)
VH: QVQLQQSGAELVRPGTSVKMSCKASGYTFTSYWIGWAKQRPGHGFEWIGDIYPGGGYTNYNEKFKGKATLTADKSSSTAYMQFSSLTSEDSAIYYCARLDGSSYRGAMDSWGQGTSITVSS
VL: DIQMTQSPSSLSASLGGKVTITCKASQGFNKYVAWYQHKPGQGPRLLIHYTSTLQPGIPARFSGSGSGRDYSFSISNLEPEDSATYFCLQYGNLLYAFGGGTKLEIKR
notes: Dylight-488 or -650 labelled in the assay; also called slightly modified version of ch1D11
Regarding B4, in assay [1], the binding result is on record as “no binding (tested: 10 ug/ml)”.

B5: ch32D6 (antibody, human IgG1, V domains shown)
VH: EVQLQQSGPDLVKPGASVKISCKASGYSFTGYYIHWMKQSHGKSLEWIGRVNPNNGDPIYNQKFRGKAILTVDQSSNTAYMELRSLTSEASAVYYCARVLFYYGSPFAYWGQGTLVTVSA
VL: DIVMTQSPSSLIVTAGEKVTMSCRSSQSLFDSGSQRNYLTWFHQKPGRPPKLLIYWASTRESGVPDRFTGSGSGTDFTLTISSVQTEDLAVYFCQNDYSFPFTFGSGTKLEEK
notes: also called chimeric 32D6
With B5, in assay [1], the binding result is “no binding (tested: 10 ug/ml)”.
